Data on one substance can be found in paper PMC9221443, “Peptidomimetics Based on C-Terminus of Blm10 Stimulate Human 20S Proteasome Activity and Promote Degradation of Proteins” (Biomolecules, 2022).

Holding throughout (assay): MST; NT-647-labelled protein kept constant (250 nM native and oxidized α-synuclein, 125 nM native enolase, 25 nM oxidized enolase), unlabelled h20S titrated in 16 dilutions from 1965 to 0.06 nM; 60 min (enolase) or 30 min (α-synuclein) at 22 °C; 20 mM Tris-HCl pH 7.2, 10% glycerol, 0.5 mM DTT, 0.5 mM NaN3, 0.125 mM EDTA, 100 mM NaCl; Hill fit, three independent experiments

Test [1] concerns the target oxidized human enolase 2 (human) (UniProt P09104).
The target of another test is α-synuclein (UniProt P37840).
In the next test the target is oxidized α-synuclein (UniProt P37840).

On to “human 20S proteasome (from UniProt P25786 4-241; P28066 8-241; P28072 35-239; Q99436 44-277; P28074 60-263) (complex)”, for which the values for the 50% effective concentration (EC50) (in test [1]; with α-synuclein; in the test with oxidized α-synuclein) were 87.8 nM, 32.3 nM and 67.6 nM, respectively.
